The test concerns thrombi in the left circumflex (LCX) coronary artery. The experiment in a line: Lysis of coronary artery thrombi by TAFIa inhibitor in conjunction with t-PA. The format is in vivo, dogs. The source says:
The study was designed with 4 groups (8 dogs/group): • (i) aspirin pre-treatment/vehicle infusion; • (ii) no pre-treatment/vehicle infusion; • (iii) no pre-treatment/TAFIa inhibitor; and • (iv) aspirin pre-treatment/TAFIa inhibitor.
Thirty minutes after initiating vehicle or compound infusion a continuous electrical current was delivered to the lumen of the left circumflex (LCX) coronary artery to cause endothelial damage and stimulate the production of a thrombus. Thrombi were allowed to mature for 1 hour prior to attempting to lyse the thrombus and cause vessel reperfusion with t-PA. A total of 4 bolus injections of t-PA (each 0.45 mg/kg i.v.) were given sequentially at 15 minute intervals. Blood flow through the coronary artery was then monitored for a further 2 hours so as to assess vessel patency. Time to vessel occlusion, and reperfusion were measured and the quantity and quality of blood flow analysed post-vessel re-perfusion. In addition, the effect of treatment on surgical bleeding, activated clotting time, cutaneous bleeding and platelet aggregation was also assessed.

The source of these data is patent US6949577B2, “Pharmaceuticals” (Pfizer, Inc., priority 2000, dated 2005).

B1: tPA: recombinant tissue plasminogen activator (tPA), a profibrinolytic antithrombotic (protein, UniProt P00750 36-562, looked up)
Tissue-type plasminogen …: SYQVICRDEKTQMIYQQHQSWLRPVLRSNRVEYCWCNSGRAQCHSVPVKSCSEPRCFNGGTCQQALYFSDFVCQCPEGFAGKCCEIDTRATCYEDQGISYRGTWSTAESGAECTNWNSSALAQKPYSGRRPDAIRLGLGNHNYCRNPDRDSKPWCYVFKAGKYSSEFCSTPACSEGNSDCYFGNGSAYRGTHSLTESGASCLPWNSMILIGKVYTAQNPSAQALGLGKHNYCRNPDGDAKPWCHVLKNRRLTWEYCDVPSCSTCGLRQYSQPQFRIKGGLFADIASHPWQAAIFAKHRRSPGERFLCGGILISSCWILSAAHCFQERFPPHHLTVILGRTYRVVPGEEEQKFEVEKYIVHKEFDDDTYDNDIALLQLKSDSSRCAQESSVVRTVCLPPADLQLPDWTECELSGYGKHEALSPFYSERLKEAHVRLYPSSRCTSQHLLNRTVTDNMLCAGDTRSGGPQANLHDACQGDSGGPLVCLNDGRMTLVGIISWGLGCGQKDVPGVYTKVTNYLDWIRDNMRP
Turning to B1, under “8 dogs/group, all groups received t-PA”, the “injured vessels patent at the end of the experiment” value was 2/8. For the same molecule, the “blood flow post-reperfusion (FIG. 1)” value (dogs, t-PA 4 x 0.45 mg/kg i.v. boluses, comparison of treatment groups) is “superior to the combination of tPA and aspirin”.
